T1: IFN-γ receptor (IFNGR1 and IFNGR2) (UniProt P15260 18-489; P38484 22-337, limits assumed)
T1 sequence (looked up) 1: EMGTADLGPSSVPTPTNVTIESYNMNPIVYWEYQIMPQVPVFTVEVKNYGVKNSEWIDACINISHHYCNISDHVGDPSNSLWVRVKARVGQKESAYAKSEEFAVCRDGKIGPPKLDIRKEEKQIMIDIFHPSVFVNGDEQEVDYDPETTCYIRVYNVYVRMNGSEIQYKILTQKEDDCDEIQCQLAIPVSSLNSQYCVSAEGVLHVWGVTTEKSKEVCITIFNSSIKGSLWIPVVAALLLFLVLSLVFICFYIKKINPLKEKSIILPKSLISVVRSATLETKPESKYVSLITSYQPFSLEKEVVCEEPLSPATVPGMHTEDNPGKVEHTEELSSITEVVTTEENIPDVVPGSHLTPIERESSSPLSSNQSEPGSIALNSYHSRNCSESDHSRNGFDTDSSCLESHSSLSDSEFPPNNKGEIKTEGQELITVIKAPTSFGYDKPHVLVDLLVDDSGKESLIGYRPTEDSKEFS
T1 sequence (looked up) 2: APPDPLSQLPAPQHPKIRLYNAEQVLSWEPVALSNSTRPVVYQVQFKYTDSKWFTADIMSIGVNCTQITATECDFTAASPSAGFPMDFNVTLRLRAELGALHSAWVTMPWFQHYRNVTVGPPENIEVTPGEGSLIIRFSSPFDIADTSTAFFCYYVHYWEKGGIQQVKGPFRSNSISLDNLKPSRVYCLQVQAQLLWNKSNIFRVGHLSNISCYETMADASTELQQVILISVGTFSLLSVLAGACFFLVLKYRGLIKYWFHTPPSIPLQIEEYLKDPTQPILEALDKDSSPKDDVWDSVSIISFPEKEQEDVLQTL

T2: mouse PD-1 (mouse, UniProt Q02242 25-167, limits assumed)
T2 construct: also called mPD-1
T2 sequence (looked up): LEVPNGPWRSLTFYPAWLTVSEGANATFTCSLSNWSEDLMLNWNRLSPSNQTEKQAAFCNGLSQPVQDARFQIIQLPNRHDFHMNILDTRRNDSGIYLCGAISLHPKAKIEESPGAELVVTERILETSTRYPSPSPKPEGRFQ


Tests used:
[1] = molecular target: T1, IFN-γ receptor (IFNGR1 and IFNGR2); experiment: cell-based or functional assay
[2] = molecular target: T2, mouse PD-1; experiment: PD-L2-Fc format, calibrated on PD-L2(wt)-Fc, method not stated
[3] = molecular target: T3, human PD-1 (human, UniProt Q15116 25-167, limits assumed); experiment: as above
T3 construct: also called hPD-1
T3 sequence (Q15116 25-167 limits assumed): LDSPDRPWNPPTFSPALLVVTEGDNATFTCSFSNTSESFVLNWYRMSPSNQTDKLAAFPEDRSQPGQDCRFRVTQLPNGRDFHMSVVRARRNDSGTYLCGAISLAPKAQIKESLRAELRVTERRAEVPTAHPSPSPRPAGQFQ

IFN-γ signal transduction, HEK-IFN-γ [1]	Kd [2]	Kd [3]	Binder
< 0.2%			IFN-γ(A23V/A23V)/CD155-Fc (Fc fusion) chain 1: WPPPGTGDVVVQAPTQVPGFLGDSVTLPCYLQVPNMEVTHVSQLTWARHGESGSMAVFHQTQGPSYSESKRLEFVAARLGAELRNASLRMFGLRVEDEGNYTCLFVTFPQGSRSVDIWLRVLAKPQNTAEVQKVQLTGEPVPMARCVSTGGRPPAQITWHSDLGGMPNTSQVPGFLSGTVTVTSLWILVPSSQVDGKNVTCKVEHESFEKPQLLTVNLTVYYPPEVSISGYDNNWYLGQNEATLTCDARSNPEPTGYNWSTTMGPLPPFAVAQGAQLLIRPVDKPINTTLICNVTNALGARQAELTVQVKEGPPSEHSGISRNGGGGSGGGDKTHTCPPCPAPEDEGGPSVFLFPPKPKDTLMISRTPEVTCVVVDVSHEDPEVKFNWYVDGVEVHNAKTKPREEQYNSTYRVVSVLTVLHQDWLNGKEYKCKVSNKALPAPIEKTISKAKGQPREPQVYVYPPSREEMTKNQVSLTCLVKGFYPSDIAVEWESNGQPENNYKTTPPVLDEDGSFALVSKLTVDKSRWQQGNVFSCSVMHEALHNHYTQKSLSLSPGK chain 2: WPPPGTGDVVVQAPTQVPGFLGDSVTLPCYLQVPNMEVTHVSQLTWARHGESGSMAVFHQTQGPSYSESKRLEFVAARLGAELRNASLRMFGLRVEDEGNYTCLFVTFPQGSRSVDIWLRVLAKPQNTAEVQKVQLTGEPVPMARCVSTGGRPPAQITWHSDLGGMPNTSQVPGFLSGTVTVTSLWILVPSSQVDGKNVTCKVEHESFEKPQLLTVNLTVYYPPEVSISGYDNNWYLGQNEATLTCDARSNPEPTGYNWSTTMGPLPPFAVAQGAQLLIRPVDKPINTTLICNVTNALGARQAELTVQVKEGPPSEHSGISRNGGGSGQDPYVKEAENLKKYFNAGHSDVVDNGTLFLGILKNWKEESDRKIMQSQIVSFYFKLFKNFKDDQSIQKSVETIKEDMNVKFFNSNKKKRDDFEKLTNYSVTDLNVQRKAIHELIQVMAELSPAAKTGKRKRSQMLFRGGGGSGGGGSGGGGSGGGGSQDPYVKEAENLKKYFNAGHSDVVDNGTLFLGILKNWKEESDRKIMQSQIVSFYFKLFKNFKDDQSIQKSVETIKEDMNVKFFNSNKKKRDDFEKLTNYSVTDLNVQRKAIHELIQVMAELSPAAKTGKRKRSQMLFRGGGGGSGGGDKTHTCPPCPAPEKKGGPSVFLFPPKPKDTLMISRTPEVTCVVVDVSHEDPEVKFNWYVDGVEVHNAKTKPREEQYNSTYRVVSVLTVLHQDWLNGKEYKCKVSNKALPAPIEKTISKAKGQPREPQVYVLPPSREEMTKNQVSLLCLVKGFYPSDIAVEWESNGQPENRYMTWPPVLDSDGSFFLYSKLTVDKSRWQQGNVFSCSVMHEALHNHYTQKSLSLSPGK
	230 nM	350 nM	PD-L2(mut2)-Fc, S58V (Fc fusion, also called PD-L2(S58V)) chain 1: LFTVTVPKELYIIEHGSNVTLECNFDTGSHVNLGAITAVLQKVENDTSPHRERATLLEEQLPLGKASFHIPQVQVRDEGQYQCIIIYGVAWDYKYLTLKVKASYRKINTHILKVPETDEVELTCQATGYPLAEVSWPNVSVPANTSHSRTPEGLYQVTSVLRLKPPPGRNFSCVFWNTHVRELTLASIDLQSQMEPRTHPTGGGGSGGGDKTHTCPPCPAPEDEGGPSVFLFPPKPKDTLMISRTPEVTCVVVDVSHEDPEVKFNWYVDGVEVHNAKTKPREEQYNSTYRVVSVLTVLHQDWLNGKEYKCKVSNKALPAPIEKTISKAKGQPREPQVYVYPPSREEMTKNQVSLTCLVKGFYPSDIAVEWESNGQPENNYKTTPPVLDEDGSFALVSKLTVDKSRWQQGNVFSCSVMHEALHNHYTQKSLSLSPGK chain 2: LFTVTVPKELYIIEHGSNVTLECNFDTGSHVNLGAITAVLQKVENDTSPHRERATLLEEQLPLGKASFHIPQVQVRDEGQYQCIIIYGVAWDYKYLTLKVKASYRKINTHILKVPETDEVELTCQATGYPLAEVSWPNVSVPANTSHSRTPEGLYQVTSVLRLKPPPGRNFSCVFWNTHVRELTLASIDLQSQMEPRTHPTGGGGSGGGDKTHTCPPCPAPEKKGGPSVFLFPPKPKDTLMISRTPEVTCVVVDVSHEDPEVKFNWYVDGVEVHNAKTKPREEQYNSTYRVVSVLTVLHQDWLNGKEYKCKVSNKALPAPIEKTISKAKGQPREPQVYVLPPSREEMTKNQVSLLCLVKGFYPSDIAVEWESNGQPENRYMTWPPVLDSDGSFFLYSKLTVDKSRWQQGNVFSCSVMHEALHNHYTQKSLSLSPGK
	220 nM	255 nM	PD-L2(mut4)-Fc, T56V/S58V/Q60L (Fc fusion) chain 1: LFTVTVPKELYIIEHGSNVTLECNFDTGSHVNLGAIVAVLLKVENDTSPHRERATLLEEQLPLGKASFHIPQVQVRDEGQYQCIIIYGVAWDYKYLTLKVKASYRKINTHILKVPETDEVELTCQATGYPLAEVSWPNVSVPANTSHSRTPEGLYQVTSVLRLKPPPGRNFSCVFWNTHVRELTLASIDLQSQMEPRTHPTGGGGSGGGDKTHTCPPCPAPEDEGGPSVFLFPPKPKDTLMISRTPEVTCVVVDVSHEDPEVKFNWYVDGVEVHNAKTKPREEQYNSTYRVVSVLTVLHQDWLNGKEYKCKVSNKALPAPIEKTISKAKGQPREPQVYVYPPSREEMTKNQVSLTCLVKGFYPSDIAVEWESNGQPENNYKTTPPVLDEDGSFALVSKLTVDKSRWQQGNVFSCSVMHEALHNHYTQKSLSLSPGK chain 2: LFTVTVPKELYIIEHGSNVTLECNFDTGSHVNLGAIVAVLLKVENDTSPHRERATLLEEQLPLGKASFHIPQVQVRDEGQYQCIIIYGVAWDYKYLTLKVKASYRKINTHILKVPETDEVELTCQATGYPLAEVSWPNVSVPANTSHSRTPEGLYQVTSVLRLKPPPGRNFSCVFWNTHVRELTLASIDLQSQMEPRTHPTGGGGSGGGDKTHTCPPCPAPEKKGGPSVFLFPPKPKDTLMISRTPEVTCVVVDVSHEDPEVKFNWYVDGVEVHNAKTKPREEQYNSTYRVVSVLTVLHQDWLNGKEYKCKVSNKALPAPIEKTISKAKGQPREPQVYVLPPSREEMTKNQVSLLCLVKGFYPSDIAVEWESNGQPENRYMTWPPVLDSDGSFFLYSKLTVDKSRWQQGNVFSCSVMHEALHNHYTQKSLSLSPGK
